Columns and labels:
[1] = target: T1, CTGF receptor on MG63 cells (Homo sapiens, UniProt Q07954); test: Specificity of CTGF binding in the presence of known growth factors, cross-linking; conditions: 200 pM 125I-CTGF, growth factor at 1 μg/ml
T1 construct: endogenous in cells; host or cells: MG63 human osteosarcoma cells
Experimental: The specificity of CTGF binding to the CTGF receptor was analyzed by performing an affinity binding experiment in the presence of a number of known growth factors. MG63 cells were labeled with 200 pM ^125I-CTGF in the presence of the indicated growth factor at 1 μg/ml. The cells were cross-linked with S-SMCC and the cell lysates were reduced prior to SDS-PAGE.

[2] = system: LRP; test: Cross-linking and equilibrium binding of 125I-rhCTGF on MEF1, PEA 10 and PEA 13 cells; design: species or system murine
Experimental: Three cell lines useful for a complete genetic system for the study of LRP function were generated by Willnow and Herz (1994, J. Cell Sci. 103:719-726) and obtained from the American Type Culture Collection (ATCC). The wild type line, MEF1, are fibroblasts originating from murine embryos and are homozygous positive for LRP expression. Fibroblasts that carry one or two copies of the defective LRP allele from hybrid embryos (see Herz et al.(1992) Cell. 71:411-21) were cultured in Pseudomonas exotoxin A (PEA) and the resistant clones, PEA 10 and PEA 13, which are heterozygous and homozygous, respectively, for LRP deficiency. Resistance to Pseudomonas exotoxin A by PEA 10 and PEA 13 cell lines, as well as sensitivity by MEF1 cells, was confirmed by growth in 30 ng/ml Pseudomonas exotoxin A after receipt from ATCC.
The three cell lines were cultured and plated for affinity binding with radiolabeled CTGF, cross-linking and gel analysis. Specifically, cross-linking of ^125I-rhCTGF to monolayers of MEF1, PEA 10 and PEA 13 cells were carried out as follows: Cells plated in 6-well dishes were incubated at 4° C. with 0.2 nM ^125I-rhCTGF in the presence (+) or absence (−) of a 200 fold excess of unlabeled rhCTGF in a binding buffer of PBS, 0.2% BSA, 0.02% sodium azide. After a 3 hour period of labeling, cells were cross-linked with 0.5 mM BS^3 for 15 minutes at room temperature. […]

[3] = target: T2, LRP receptor (Mus musculus, UniProt Q91ZX7); test: Competitive binding and cross-linking of LRP ligands with 125I-CTGF on BMS-2 cells; design: species or system murine; conditions: 50 pM 125I-CTGF; CTGF 21.5 nM, BP5 201-218 50 μg/ml, LF 25 μg/ml, apo E 20 μg/ml, LpL 20 μg/ml
T2 construct: endogenous in cells; host or cells: BMS2 (BMS-2) murine bone marrow stromal cells
Experimental: To examine whether ligands known to bind to LRP inhibit CTGF binding, BMS-2 cells were labeled with 50 pM ^125I-CTGF in the presence or absence of unlabeled ligand (CTGF: 21.5 nM; BP5^201-218: 50 μg/ml or […] (Campbell and Andress, 1997, Am. J. Physiol., 273:E1005-13); lactoferrin (LF): 25 μg/ml or 250 nM; apo E: 20 μg/ml or 574 nM; lipoprotein lipase (LpL): 20 μg/ml or 400 nM). The cells were cross-linked and the receptor complexes were solubilized, processed on SDS-PAGE and visualized by autoradiography.

[4] = system: MG63 cells; test: Internalization and degradation kinetics of 125I-CTGF with heparin or lactoferrin; assay type: cell-based, human
Experimental: Experiments were performed in which the internalization and degradation kinetics of CTGF were followed in the presence or absence of a known LRP ligand, lactoferrin. Kinetics were followed in the presence or absence of 3 μg/ml heparin or lactoferrin. ^125I-CTGF was bound to MG63 cells at 4° C. and free CTGF was removed by washing the cells. Fresh medium was placed on the cells, and the cells were transferred to 37° C. At each time point, the medium was removed and TCA precipitated. Degraded ^125I-CTGF was quantified by measuring the cpm in the non-precipitable fraction (see FIG. 17). In parallel experiments, ^125I-CTGF was bound to MG63 cells at 4° C. and free CTGF was removed by washing the cells. Fresh medium was placed on the cells, and they were transferred to 37° C. At each time point, the cell layer was removed by extensive trypsinization at 4° C. The cells were centrifuged and the cpm associated with the pellet, the internalized fraction, was determined (see FIG. 18).

[5] = system: CTGF receptor; test: Cell survey of CTGF cross-linked receptor complexes; assay type: binding
[6] = system: MG63 cells; test: Internalization and degradation of 125I-rhCTGF during binding, with additives; assay type: cell-based, human; conditions: two hour incubation at 37° C.
[7] = target: T3, high Mr CTGF binding protein on BMS-2 cells (Mus musculus, UniProt Q91ZX7); test: Binding analysis of 125I-CTGF competition with LRP ligands on BMS-2 cells; design: species or system murine; conditions: 0.1 nM 125I-CTGF
T3 construct: endogenous in cells; host or cells: BMS2 (BMS-2) murine bone marrow stromal cells
Experimental: BMS-2 cells were incubated with 0.1 nM ^125I-CTGF in the presence of unlabeled CTGF, recombinant human apoE, low density lipoprotein purified from human plasma (LDL), or lipoprotein lipase purified from bovine milk (LpL).

[8] = system: MG63 cells; test: Internalization and degradation time course of 125I-rhCTGF after TGF-β treatment; assay type: cell-based, human
Experimental: To examine whether LRP function was altered by TGF-β treatment, the following experiments were conducted. MG63 cells were plated at 2.5×10^4 cells/cm^2 in MEM with 10% FBS. The following day, the cells were rinsed with MEM containing 0.5% MEM and incubated in this low serum medium with or without 20 ng/ml of TGF-β2. At 24 or 48 hours the cells were rinsed twice with binding medium, then incubated at 4° C. for 3 hours with 0.2 nM ^125I-rhCTGF. After incubation, the cells were rinsed 4 times with binding buffer at 4° C., then fresh binding buffer pre-warmed to 37° C. was added and the cells continued incubation at 37° C. At time points of 0, 15, 30, 60, 120 and 180 min, the media were collected and processed by precipitation with 10% TCA. The cell layer was processed by trypsination of the cells. Pellets and supernatants were separated and counted for each point.

[9] = system: MG63 cells; test: Protein synthesis in the presence of PEA as measure of LRP internalization activity; assay type: cell-based, human; conditions: 20 ng/ml TGF-β for 48 hours, 14C-amino acid pulse
Experimental: Pseudomonas exotoxin A (PEA) is a ligand for LRP, and following internalization is degraded in lysosomes. One of the degradation products contains PEA domain III, which promotes ADP-ribosylation of elongation factor-2, inhibiting protein synthesis. Protein synthesis in the presence of various concentrations of PEA was used to measure the internalization activity of LRP. To test whether TGF-β altered LRP activity for PEA internalization, MG63 cells were treated with 20 ng/ml TGF-β for 48 hours, then treated with various concentrations of PEA. After 2 hours, protein synthesis was monitored with an overnight pulse of ^14C-amino acids. The cell layers were extracted with 10% trichloroacetic acid and counted.

[10] = 20 ng/ml TGF-β2, 48 hour exposure

T2 sequence (Q91ZX7 20-4545): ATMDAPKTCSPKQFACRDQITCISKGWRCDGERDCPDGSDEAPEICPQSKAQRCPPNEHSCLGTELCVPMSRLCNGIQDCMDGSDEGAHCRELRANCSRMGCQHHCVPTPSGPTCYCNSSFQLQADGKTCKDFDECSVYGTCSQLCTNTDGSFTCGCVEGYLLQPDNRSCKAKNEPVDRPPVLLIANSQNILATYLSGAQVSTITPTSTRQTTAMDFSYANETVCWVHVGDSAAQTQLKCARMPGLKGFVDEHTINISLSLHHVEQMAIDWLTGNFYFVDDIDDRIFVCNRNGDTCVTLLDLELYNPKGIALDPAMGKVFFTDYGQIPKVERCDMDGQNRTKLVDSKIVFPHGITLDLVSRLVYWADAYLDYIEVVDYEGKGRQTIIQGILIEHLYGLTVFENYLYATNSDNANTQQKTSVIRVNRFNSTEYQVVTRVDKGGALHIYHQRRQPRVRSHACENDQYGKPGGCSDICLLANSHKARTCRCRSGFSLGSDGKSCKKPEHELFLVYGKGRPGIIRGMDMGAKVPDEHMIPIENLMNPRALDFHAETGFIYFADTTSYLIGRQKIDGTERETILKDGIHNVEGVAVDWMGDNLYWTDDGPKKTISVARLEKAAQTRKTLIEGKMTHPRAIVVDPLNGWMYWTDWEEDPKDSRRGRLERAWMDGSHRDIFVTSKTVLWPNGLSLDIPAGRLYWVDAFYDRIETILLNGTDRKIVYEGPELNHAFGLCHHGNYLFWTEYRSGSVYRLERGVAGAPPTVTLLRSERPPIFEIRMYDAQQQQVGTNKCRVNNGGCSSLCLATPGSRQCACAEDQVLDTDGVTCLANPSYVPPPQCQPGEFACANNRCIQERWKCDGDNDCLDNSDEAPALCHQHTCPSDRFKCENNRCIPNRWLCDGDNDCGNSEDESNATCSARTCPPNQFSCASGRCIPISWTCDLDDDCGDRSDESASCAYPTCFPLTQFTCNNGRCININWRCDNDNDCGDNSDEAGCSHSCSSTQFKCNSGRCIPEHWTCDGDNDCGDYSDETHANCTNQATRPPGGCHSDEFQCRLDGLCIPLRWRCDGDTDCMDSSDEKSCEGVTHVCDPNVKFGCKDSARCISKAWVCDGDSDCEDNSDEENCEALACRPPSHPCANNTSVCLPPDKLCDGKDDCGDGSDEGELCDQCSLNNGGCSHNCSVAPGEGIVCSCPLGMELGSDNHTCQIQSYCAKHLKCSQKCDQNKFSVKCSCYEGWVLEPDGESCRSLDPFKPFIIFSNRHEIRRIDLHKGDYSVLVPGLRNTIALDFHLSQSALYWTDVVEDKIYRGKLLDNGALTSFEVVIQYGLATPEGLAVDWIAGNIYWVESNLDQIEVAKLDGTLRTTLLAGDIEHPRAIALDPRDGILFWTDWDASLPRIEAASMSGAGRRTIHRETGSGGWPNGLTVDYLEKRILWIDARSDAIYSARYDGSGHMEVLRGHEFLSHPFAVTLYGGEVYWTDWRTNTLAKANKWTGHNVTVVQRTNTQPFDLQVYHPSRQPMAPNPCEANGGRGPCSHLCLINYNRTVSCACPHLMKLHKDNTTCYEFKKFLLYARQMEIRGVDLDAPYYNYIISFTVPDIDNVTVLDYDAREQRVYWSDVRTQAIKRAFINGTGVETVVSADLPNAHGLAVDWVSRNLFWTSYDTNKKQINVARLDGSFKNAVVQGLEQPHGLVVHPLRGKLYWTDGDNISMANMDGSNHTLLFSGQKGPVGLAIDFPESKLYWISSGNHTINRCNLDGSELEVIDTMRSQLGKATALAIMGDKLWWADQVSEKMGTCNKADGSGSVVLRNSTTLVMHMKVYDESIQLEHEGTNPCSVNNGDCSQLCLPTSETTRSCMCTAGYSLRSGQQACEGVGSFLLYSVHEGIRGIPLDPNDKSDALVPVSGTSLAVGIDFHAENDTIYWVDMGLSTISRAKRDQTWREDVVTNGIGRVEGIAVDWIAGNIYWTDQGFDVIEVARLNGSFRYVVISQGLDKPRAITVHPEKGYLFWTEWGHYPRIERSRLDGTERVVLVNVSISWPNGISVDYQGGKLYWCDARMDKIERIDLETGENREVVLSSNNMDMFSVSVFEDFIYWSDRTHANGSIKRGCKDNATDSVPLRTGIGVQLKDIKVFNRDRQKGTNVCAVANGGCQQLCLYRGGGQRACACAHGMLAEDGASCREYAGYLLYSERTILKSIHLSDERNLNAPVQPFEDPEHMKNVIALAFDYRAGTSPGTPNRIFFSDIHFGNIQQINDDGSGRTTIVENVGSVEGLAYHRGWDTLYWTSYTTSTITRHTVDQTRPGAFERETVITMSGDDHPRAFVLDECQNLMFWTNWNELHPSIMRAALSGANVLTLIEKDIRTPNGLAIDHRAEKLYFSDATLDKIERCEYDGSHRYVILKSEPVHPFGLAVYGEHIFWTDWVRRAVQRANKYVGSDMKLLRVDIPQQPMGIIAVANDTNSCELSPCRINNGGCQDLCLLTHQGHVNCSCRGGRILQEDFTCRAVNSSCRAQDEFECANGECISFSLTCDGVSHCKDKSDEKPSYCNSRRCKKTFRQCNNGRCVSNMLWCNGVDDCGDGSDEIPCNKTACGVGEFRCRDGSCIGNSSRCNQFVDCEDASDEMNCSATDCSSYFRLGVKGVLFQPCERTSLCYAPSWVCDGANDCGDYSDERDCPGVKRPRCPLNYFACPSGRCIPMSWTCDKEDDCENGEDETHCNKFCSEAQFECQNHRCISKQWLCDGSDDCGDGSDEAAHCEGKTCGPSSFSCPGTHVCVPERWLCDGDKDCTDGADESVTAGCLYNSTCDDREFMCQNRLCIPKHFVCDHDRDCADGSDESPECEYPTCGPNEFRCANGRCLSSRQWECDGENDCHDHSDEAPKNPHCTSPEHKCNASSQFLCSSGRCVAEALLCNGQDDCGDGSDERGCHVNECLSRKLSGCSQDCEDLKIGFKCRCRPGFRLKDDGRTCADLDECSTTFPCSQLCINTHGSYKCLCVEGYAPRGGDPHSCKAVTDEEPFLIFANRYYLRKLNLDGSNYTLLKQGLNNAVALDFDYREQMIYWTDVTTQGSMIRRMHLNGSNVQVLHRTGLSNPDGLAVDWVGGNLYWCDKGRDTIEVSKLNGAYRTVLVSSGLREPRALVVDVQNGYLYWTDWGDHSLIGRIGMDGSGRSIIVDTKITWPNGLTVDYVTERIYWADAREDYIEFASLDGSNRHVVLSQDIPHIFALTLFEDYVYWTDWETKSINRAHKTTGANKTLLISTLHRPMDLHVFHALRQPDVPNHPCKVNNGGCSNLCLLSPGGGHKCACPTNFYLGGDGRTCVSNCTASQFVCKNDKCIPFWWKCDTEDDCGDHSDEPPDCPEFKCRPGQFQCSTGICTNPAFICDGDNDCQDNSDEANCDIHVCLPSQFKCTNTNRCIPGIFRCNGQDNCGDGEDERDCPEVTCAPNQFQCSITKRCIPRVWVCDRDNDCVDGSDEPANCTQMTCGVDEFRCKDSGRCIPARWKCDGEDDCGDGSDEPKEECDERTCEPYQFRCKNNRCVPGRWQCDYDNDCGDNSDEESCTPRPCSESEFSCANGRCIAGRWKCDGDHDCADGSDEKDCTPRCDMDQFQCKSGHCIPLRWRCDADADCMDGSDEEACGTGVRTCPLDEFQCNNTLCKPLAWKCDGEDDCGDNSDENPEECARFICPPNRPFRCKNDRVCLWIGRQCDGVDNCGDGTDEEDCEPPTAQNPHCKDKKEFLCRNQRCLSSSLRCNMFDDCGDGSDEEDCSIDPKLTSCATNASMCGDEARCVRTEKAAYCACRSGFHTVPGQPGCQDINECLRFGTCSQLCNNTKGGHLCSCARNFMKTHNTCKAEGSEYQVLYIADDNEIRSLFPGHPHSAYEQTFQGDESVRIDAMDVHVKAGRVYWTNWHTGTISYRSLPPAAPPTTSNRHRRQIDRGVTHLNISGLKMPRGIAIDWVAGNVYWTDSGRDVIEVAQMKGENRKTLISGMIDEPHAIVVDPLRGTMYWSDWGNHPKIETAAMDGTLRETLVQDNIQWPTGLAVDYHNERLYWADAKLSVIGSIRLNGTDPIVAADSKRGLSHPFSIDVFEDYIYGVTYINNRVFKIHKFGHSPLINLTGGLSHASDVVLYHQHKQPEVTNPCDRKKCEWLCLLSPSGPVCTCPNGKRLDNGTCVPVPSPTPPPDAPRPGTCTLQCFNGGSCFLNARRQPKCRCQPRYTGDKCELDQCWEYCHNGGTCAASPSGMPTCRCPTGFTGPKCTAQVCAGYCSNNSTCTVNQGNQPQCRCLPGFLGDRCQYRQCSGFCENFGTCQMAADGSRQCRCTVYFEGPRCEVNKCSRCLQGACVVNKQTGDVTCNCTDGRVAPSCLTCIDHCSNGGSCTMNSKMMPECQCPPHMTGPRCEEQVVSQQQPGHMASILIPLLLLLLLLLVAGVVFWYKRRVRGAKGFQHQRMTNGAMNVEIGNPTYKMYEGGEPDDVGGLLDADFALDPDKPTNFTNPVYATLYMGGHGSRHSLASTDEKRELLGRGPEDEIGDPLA
T3 sequence (Q91ZX7 20-4545): as above

B1: connective tissue growth factor (protein)
chain: QNCSGPCRCPDEPAPRCPAGVSLVLDGCGCCRVCAKQLGELCTERDPCDPHKGLFCHFGSPANRKIGVCTAKDGAPCIFGGTVYRSGESFQSSCKYQCTCLDGAVGCMPLCSMDVRLPSPDCPFPRRVKLPGKCCEEWVCDEPKDQTVVGPALAAYRLEDTFGPDPTMIRANCLVQTTEWSACSKTCGMGISTRVTNDNASCRLEKQSRLCMVRPCEADLEENIKKGKKCIRTPKISKPIKFELSGCTSMKTYRAKFCGVCTDGRCCTPHRTTTLPVEFKCPDGEVMKKNMMFIKTCACHYNCPGDNDIFESLYYRKMYGDMA
notes: recombinant human CTGF produced in baculovirus-infected Hi 5 insect cells, also used radioiodinated
competition for CTGF binding to the cell surface [1]: effectively competed
cross-linked signal co-migrating with the complex, PEA 13 cells ([2]; 0.2 nM 125I-rhCTGF, BS3, overexposed autoradiograph): no signal
CTGF binding on PEA 13 cells ([2]; PEA 13, homozygous LRP deficient): no binding was detected
competing the binding to the LRP receptor [3]: most effective
time of internalization of CTGF ([4]; 37° C. after binding at 4° C.): ≤ 30 min
cross-linking of CTGF to CHO and MLEC cells [5]: did not appear to cross-link
CTGF specifically internalized, control cells ([6]; 0.2 nM 125I-rhCTGF, no TGF-β): approximately 260 fmoles CTGF/mg cell protein
CTGF degraded, control cells ([6]; no TGF-β): About 1000 fmoles/mg cell protein

B2: lactoferrin (protein, UniProt P02788 20-710, looked up)
Lactotransferrin: GRRRSVQWCAVSQPEATKCFQWQRNMRKVRGPPVSCIKRDSPIQCIQAIAENRADAVTLDGGFIYEAGLAPYKLRPVAAEVYGTERQPRTHYYAVAVVKKGGSFQLNELQGLKSCHTGLRRTAGWNVPIGTLRPFLNWTGPPEPIEAAVARFFSASCVPGADKGQFPNLCRLCAGTGENKCAFSSQEPYFSYSGAFKCLRDGAGDVAFIRESTVFEDLSDEAERDEYELLCPDNTRKPVDKFKDCHLARVPSHAVVARSVNGKEDAIWNLLRQAQEKFGKDKSPKFQLFGSPSGQKDLLFKDSAIGFSRVPPRIDSGLYLGSGYFTAIQNLRKSEEEVAARRARVVWCAVGEQELRKCNQWSGLSEGSVTCSSASTTEDCIALVLKGEADAMSLDGGYVYTAGKCGLVPVLAENYKSQQSSDPDPNCVDRPVEGYLAVAVVRRSDTSLTWNSVKGKKSCHTAVDRTAGWNIPMGLLFNQTGSCKFDEYFSQSCAPGSDPRSNLCALCIGDEQGENKCVPNSNERYYGYTGAFRCLAENAGDVAFVKDVTVLQNTDGNNNEAWAKDLKLADFALLCLDGKRKPVTEARSCHLAMAPNHAVVSRMDKVERLKQVLLHQQAKFGRNGSDCPDKFCLFQSETKNLLFNDNTECLARLHGKTTYEKYLGPQYVAGITNLKKCSTSPLLEACEFLRK
notes: known LRP ligand
competing the binding to the LRP receptor [3]: very effective in competing
rate of degradation of CTGF ([4]; 3 μg/ml heparin or lactoferrin): reduced the rate
rate of internalization of CTGF ([4]; 3 μg/ml heparin or lactoferrin): reduced the rate

B3: lipoprotein lipase (protein)
chain: DRITGGKDFRDIESKFALRTPEDTAEDTCHLIPGVTESVANCHFNHSSKTFVVIHGWTVTGMYESWVPKLVAALYKREPDSNVIVVDWLSRAQQHYPVSAGYTKLVGQDVAKFMNWMADEFNYPLGNVHLLGYSLGAHAAGIAGSLTNKKVNRITGLDPAGPNFEYAEAPSRLSPDDADFVDVLHTFTRGSPGRSIGIQKPVGHVDIYPNGGTFQPGCNIGEALRVIAERGLGDVDQLVKCSHERSVHLFIDSLLNEENPSKAYRCNSKEAFEKGLCLSCRKNRCNNMGYEINKVRAKRSSKMYLKTRSQMPYKVFHYQVKIHFSGTESNTYTNQAFEISLYGTVAESENIPFTLPEVSTNKTYSFLLYTEVDIGELLMLKLKWISDSYFSWSNWWSSPGFDIGKIRVKAGETQKKVIFCSREKMSYLQKGKSPVIFVKCHDKSLNRKSG
notes: lipoprotein lipase purified from bovine milk, known LRP ligand
competition with 125I-CTGF [7]: competed
competing the binding to the LRP receptor [3]: very effective in competing

B4: transforming growth factor beta (protein)
chain: ALDAAYCFRNVQDNCCLRPLYIDFKRDLGWKWIHEPKGYNANFCAGACPYLWSSDTQHSRVLSLYNTINPEASASPCCVSQDLEPLTILYYIGKTPKIEQLSNMIVKSCKCS
notes: growth factor, 20 ng/ml TGF-β2 used to treat MG63 cells
degradation of 125I-CTGF, control cells relative to TGF-β treated cells [8, 10]: at least 3 fold
internalization of CTGF in TGF-β treated cells [8, 10]: more modest internalization
internalization and degradation of CTGF by CTGF receptor (LRP), lower in TGF-β treated cells ([8]; TGF-β treated versus control cells): about 3 fold
sensitivity to PEA, TGF-β treated cells less sensitive than control cells [9]: about 3 fold
CTGF degraded, TGF-β treated cells ([6]; 48 hours post-TGF-β exposure): 400 fmol
CTGF specifically internalized, TGF-β treated cells ([6]; 48 hours post-TGF-β exposure): about 150 fmoles
